B1: TGFB3: TGFbeta agonist (protein, UniProt P10600 301-412, looked up)
Transforming growth factor …: ALDTNYCFRNLEENCCVRPLYIDFRQDLGWKWVHEPKGYYANFCSGPCPYLRSADTTHSTVLGLYNTLNPEASASPCCVPQDLEPLTILYYVGRTPKVEQLSNMVVKSCKCS

Assays:
Format in all cases: cell-based, human
[1] = tested on: hiPSCs; assay: Induction of primitive streak-like mesoderm from hiPSCs, flow cytometry; settings: hIPSCs induced with Activin A 3 ng/ml, BMP4 1 ng/ml, basic FGF 5 ng/ml and CHIR99061 1 micromolar, day 1 to day 3
Excerpt: FIG. 1. Serum-free differentiation of paraxial mesoderm, chondrocyte progenitors, and cartilage tissues from human pluripotent stem cells (hPSCs). […] On day 4 (T4), mesoderm populations are monitored by the expression of CD56 and PDGFRa on the cell surface by flow cytometry (B). Day 4 mesoderm cells are specified to a paraxial mesoderm fate in monolayer culture by treatment of Dorsomorphin, a BMP inhibitor, a TGFbeta inhibitor SB431542, and bFGF, from days 4 to 6 and bFGF from days 4 to 15 (stage 2). Day 15 paraxial mesoderm cells can generate chondrocyte progenitors by plating in a high density ‘spot’ termed micromass, or by plating onto collagen coated membrane filters (not shown) in the presence of TGFB3 for approximately 10 days (stage 3). Chondrocyte progenitors can be specified to articular chondrocytes or growth plate-like chondrocytes in a cartilage tissue format during stage 4 of differentiation by extended stimulation with TGFB3 (articular) or […] (growth plate-like) for example for 12 weeks. Tissues have been kept in culture for at least 7 months.

[2] = tested on: hPSC-derived paraxial mesoderm; assay: Chondrocyte specification in micromass culture with TGFB3 or BMP4 (histology, scatter flow cytometry, qRT-PCR, immunostaining)
Excerpt: FIG. 4. TGFB3 and BMP4 specify chondrocytes and cartilage-like tissues with articular cartilage and growth plate cartilage phenotypes. (A) Micrographs of 5 week old micromasses derived with TGFB3 or BMP4, 20× magnification. (B) Tissue histology (stained with toluidine blue) of 13 week cartilage tissues derived with TGFB3 or BMP4. […] (C) Flow cytometric analysis of forward and side cell scatter parameters of 3 week and 5 week old micromasses. Side scatter indicates cell granularity and forward cell scatter indicates cell size. (D) Comparison of hPSC-derived micromass tissues to fetal primary chondrocyte derived micromass tissues and the developing human fetal femur cartilage. Articular cartilage regions appear to have smaller cells in size compared to growth plate like regions, which contain cells which appear enlarged (hypertrophic). Cartilage tissues in micromass as well as in the fetal femur stain uniformly with the toluidine blue stain (images are pink/purple in color and indicate the presence of cartilage proteins). The BMP4-treated micromass tissues contain a large number of enlarged cells which is similar to the bottom panel of the fetal cartilage which represents a growth plate cartilage. TGFB3 treated micromass cultures contain fewer, if any, enlarged chondrocytes, and appear similar to the upper panel of the fetal cartilage which is the site of articular cartilage. (E) Micrograph using GDF5 instead of BMP4 to generate hypertrophic chondrocytes. (F) Histological analyses of cartilage tissues derived from hiPSCs stained with Toluidine blue after 12 weeks. (G,H) Immunohistochemical staining of hESC-derived cartilage tissues for type II Collagen (G, 8 week tissues), and lubricin (H, 12 week tissues).
FIG. 5. Gene expression analyses of chondrocyte specification in the presence of TGFB3 or BMP4 during stages 3 and 4 of differentiation respectively. General chondrocyte genes Sox9 (A) and collagen 2 (B), hypertrophic genes collagen 10 (C), Runx2 (D), osterix (E) and alkaline phosphatase (F), articular cartilage associated genes lubricin (G) and cartilage intermediate layer protein 2 (CILP2) (H), interzone-related (joint progenitor) genes GDF5 (I), ERG (J) and Wnt9a (K). Expression is copy number relative to TBP (n=3 to 8 biological replicates) and is compared to primary fetal chondrocytes (aged 16 to 19 weeks, n=4), primary healthy adult articular chondrocytes (n=2), and growth plate-like chondrocytes isolated from the iliac crest of an adult (n=1). T15 Mesoderm indicates day 15 hESC-derived paraxial mesoderm (DM+FGF-treated). Error bars indicate s.e.m.
FIG. 8. TGFβ1, TGFβ2, and TGFβ3 generated articular chondrocytes from hPSC-derived paraxial mesoderm. COL2A1, lubricin, and CILP2 gene expression after 12 weeks of micromass culture in the presence of TGF agonists as indicated (10 ng/ml). Values represent copy number mRNA relative to TBP. Error bars indicate s.e.m.
Previous studies have shown that TGFBeta/BMP signaling is required to generate chondrocyte progenitors from paraxial mesoderm. […] Following 10 days of TGFb3 treatment (day 25 total), cultures could be switched to media containing BMP4 or maintained in TGFb3 (stage 4) in order to specify subsets of chondrocytes (articular/non-hypertrophic or growth plate/hypertrophic). To determine the chondrocyte potential of the day 15 mesoderm populations, the cells were plated at high cell density in a 20 microliter volume on tissue culture treated Petri dishes for an hour (micromass) and then the ‘spot’ was submerged/covered with media. In our initial studies, the cells were ‘spotted’ in a media containing 2% fetal bovine serum. However, this short serum exposure can be omitted with no effects on cartilage formation at later stages, making this protocol optionally serum-free. After 2 to 3 days, serum-free media containing TGFb3 is added to the culture to generate chondrocyte progenitors. […]

[3] = tested on: fetal chondrocytes; assay: CD73 flow cytometry of fetal chondrocytes in micromass culture; settings: 9 to 10 weeks of micromass culture
Excerpt: (§1) FIG. 6. CD73 is expressed by articular chondrocytes. Flow cytometric analyses of primary chondrocytes (A) Healthy adult articular chondrocytes and iliac crest GPC-like chondrocytes, (B) Primary fetal chondrocytes, primary (C) or passaged (passage (P)2, D) fetal chondrocytes after 9 to 10 weeks of micromass culture in the presence of TGFB3 or BMP4, and (E) hPSC-derived chondrocytes after 11 weeks derived in the presence of TGFB3 or BMP4. (F) Time course of CD73 and PDGFR-beta cells surface expression on T12 and T15 paraxial mesoderm populations, and micromass cultures treated with TGFB3 after 3 days, 10 days, and 2 weeks. (G) Time course of CD73 expression on TGFB3-treated micromasses after 3 days, 7 days, 10 days, and 2 to 5 weeks.
(§2) Primary (P0) and passaged (P2) fetal chondrocytes can also be cultured in micromass with TGFB3 or BMP4, similar to how hPSC-derived cartilage tissues are formed. TGFB3-treated fetal P0-derived or fetal P2-derived cartilage tissues contain over 93% CD73 positive cells, while BMP4 treatment reduces the percentage of CD73+ cells to 70% and 61% respectively (FIG. 6C,D). CD73 expression is also expressed by over 98% of hPSC-derived cartilage tissues derived with TGFB3-treatment (FIG. 6E). The percentage of CD73+ cells is reduced to only about 57% of cells after BMP4-treatment. Thus, CD73 marks primary healthy adult ACs, a proportion of healthy fetal chondrocytes, fetal chondrocytes or passaged fetal chondrocytes cultured as micromasses in TGFB3, and TGFB3-treated articular chondrocyte-like cells derived from human PSCs.

[4] = tested on: hPSC-derived chondrocytes; assay: CD73 flow cytometry of hPSC-derived cartilage tissues; settings: hPSC-derived cartilage tissues after 11 weeks
Excerpt: as §1
as §2, with “Thus, CD73 marks primary healthy adult ACs, a proportion of healthy fetal chondrocytes, fetal chondrocytes or passaged fetal chondrocytes cultured as micromasses in TGFB3, and TGFB3-treated articular chondrocyte-like cells derived from human PSCs.” left out

| Molecule | expression of cell surface markers CD56, PDGFRalpha and KDR [1] | forward and side scatter of live cells (cell size, granularity) ([2]; 3 week and 5 week micromasses) | chondrocyte morphology ([2]; 5 week old micromasses) | Lubricin protein (immunohistochemistry) ([2]; 12 week micromass tissue) | tissue histology (toluidine blue), chondrocyte size ([2]; 13 week old tissues, GDF5 instead of BMP4) | expression of mature AC genes, such as lubricin and CILP2 ([2]; extended period of time (up to 12 weeks)) | COL2A1 expression ([2]; qRT-PCR, by 2 weeks of culture) | SOX9 expression ([2]; qRT-PCR, by 2 weeks of culture) | CD73 positive cells ([3]; passaged (P2) fetal chondrocytes) | CD73 positive cells ([3]; primary (P0) fetal chondrocytes) | CD73 positive cells [4] |
| --- | --- | --- | --- | --- | --- | --- | --- | --- | --- | --- | --- |
| Cc1cnc(-c2cnc(NCCNc3ccc(C#N)cn3)nc2-c2ccc(Cl)cc2Cl)[nH]1 [CHIR99061] | also expresses CD56, PDGFRalpha and KDR |  |  |  |  |  |  |  |  |  |  |
| B1 |  | tight population of smaller, less granular cells | small fibroblastic-like phenotype | present | small cells (chondrocytes) dispersed evenly throughout the tissue | allows for the expression of mature AC genes | upregulated | upregulated | over 93% | over 93% | over 98% |
